± gives the standard deviation.

The series in a line: protein stability index of a GFP-peptide fusion (GPS, HEK-293T) (PSI 1-6); higher = more stable. Particulars: c terminus: a fixed tail appended.
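Also: 24-mer peptide tiles fused after GFP, lentivirally expressed, FACS-sorted into six equal bins by GFP/DsRed ratio, decoded by Illumina sequencing, PSI is the read-weighted mean bin number.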

In the case of LTELVQRRITYLQNPKDCSKAKKL [FUT8], the protein stability index is 3.99 ± 0.35 (treatment: DMSO) and 4.08 ± 0.24 (treatment: MLN4924 1 uM, 8 h).
The matching figures for YIVAGSARQHALYIWEKSIGNLVK [RBBP5]: 2.22 ± 0.25 and 2.14 ± 0.47.
For CQVGGIEALVRTVLRAGDREDITE [CTNNB1], the protein stability index reads like this: (treatment: DMSO) 3.28 ± 0.46; (treatment: MLN4924 1 uM, 8 h) 3.21 ± 0.46.
Consider AGADLKERAKMSSSEVGPFVSKIR [AUH], for which the protein stability index is, setting by setting: (treatment: DMSO) 3.21 ± 0.21; (treatment: MLN4924 1 uM, 8 h) 4.069 ± 0.006.
Consider IASFIRGPNPSKLIQQFLTLRPDQ [CDS2], for which the protein stability index worked out at 2.24 ± 0.17 (treatment: DMSO) and 2.33 ± 0.22 (treatment: MLN4924 1 uM, 8 h).
The matching figures for GNKCDLEDERVVGKEQGQNLARQW [RAP1B]: 4.7 ± 0.12 and 4.73 ± 0.14.
The matching figures for SSGNTVLLLILCMQHSFPEPGRLY [TMEM192]: 3.1 ± 0.73 and 3.09 ± 0.53.
The matching figures for EALLKLLAGLTRPDVRPPLGRGLV [SEPHS2]: 2.22 ± 0.45 and 2.32 ± 0.24.
SPLHAAAEAGHVDICHMLVQFCRL [EHMT1]: the protein stability index reads like this: (treatment: DMSO) 2.25 ± 0.069; (treatment: MLN4924 1 uM, 8 h) 2.5 ± 0.37.
For LKAHAEEKPPSGTKEKKHQCDHCE [PLAGL1], the protein stability index turned out to be 5.38 ± 0.22 (treatment: DMSO) and 5.46 ± 0.098 (treatment: MLN4924 1 uM, 8 h).
The matching figures for LDFKDLLESEDWEEDNWDPELMEH [TEX19]: 4.86 ± 0.091 and 4.94 ± 0.26.
WGLDQEQVFSLGDGVSGGFFGIRD [ZBED1]: the protein stability index is 2.91 ± 0.6 (treatment: DMSO) and 3.17 ± 0.3 (treatment: MLN4924 1 uM, 8 h).
The matching figures for TTTDHSSNPGPVPGSSSGPVLGSS [SPAG8]: 5.08 ± 0.16 and 5.13 ± 0.09.
AGIREAKAKQEKVSAQYLSEIEMA [FLOT1] registered a protein stability index (treatment: DMSO) of 4.63 ± 0.33 and a protein stability index (treatment: MLN4924 1 uM, 8 h) of 4.75 ± 0.14.
The matching figures for MEDKEMTGPQLPESLEDVAMYISQ [ZNF263]: 4.73 ± 0.23 and 4.78 ± 0.2.
The matching figures for KKIFKSHLKSSRNSTSVKKKSSRN [P2RY14]: 3.87 ± 0.32 and 4.22 ± 0.41.
The matching figures for HDGKNQPGVAYPAFLGPDEAFALP [SPSB4]: 4.12 ± 0.3 and 4.06 ± 0.21.
Regarding VERYHNLCQKQVKAQLPRRESERR [FBXO28], the protein stability index was found to be 4.08 ± 0.31 (treatment: DMSO) and 3.99 ± 0.08 (treatment: MLN4924 1 uM, 8 h).
Regarding EEEMNALRGQVGGEINVEMDAAPG [KRT17], the protein stability index is, setting by setting: (treatment: DMSO) 5.45 ± 0.34; (treatment: MLN4924 1 uM, 8 h) 5.53 ± 0.13.
The matching figures for SLDGRDPGNGTHGLSPEEKEQLSN [ELOA2]: 5.48 ± 0.23 and 5.64 ± 0.16.
The matching figures for YQQQHEQQKKDLEILHQQNIHQLQ [SASS6]: 4.47 ± 0.11 and 4.6 ± 0.19.
Turning to KDARQWFAELSVDMEKILEIIRVI [CCNC], the protein stability index runs as follows: (treatment: DMSO) 2.24 ± 0.38; (treatment: MLN4924 1 uM, 8 h) 2.15 ± 0.35.
The matching figures for QAGPEATTSDPQDLDMKKHRCKCC [PALM]: 5.06 ± 0.3 and 5.17 ± 0.11.
As to TYIPENNARGASIFSVTALDPDSK [PCDHGA10], the protein stability index turned out to be 4.49 ± 0.17 (treatment: DMSO) and 4.62 ± 0.15 (treatment: MLN4924 1 uM, 8 h).
Consider ENFQEGKDMSESQDEVPDEVENQF [TAF7L], for which the protein stability index runs as follows: (treatment: DMSO) 5.58 ± 0.2; (treatment: MLN4924 1 uM, 8 h) 5.56 ± 0.24.
Regarding PGVQAPEDLEWERYRGRGSEEYRA [CHGB], the protein stability index stood at 4.8 ± 0.17 (treatment: DMSO) and 5.18 ± 0.63 (treatment: MLN4924 1 uM, 8 h).
The matching figures for KGKTAVDTVFRFDPRYNKWMQVAS [KLHL13]: 2.4 ± 0.3 and 2.94 ± 0.5.
The matching figures for EAYTKICDPGLTAFEPEALGNLVE [CAMK2D]: 3.91 ± 0.25 and 3.62 ± 0.27.
Turning to SQEYQILLDVKTRLEQEIATYRRL [KRT16], the protein stability index came to 2.71 ± 0.34 (treatment: DMSO) and 2.88 ± 0.44 (treatment: MLN4924 1 uM, 8 h).
LLNQQSLKRSANQMGVSAKRRPKA [MED27] showed a protein stability index (treatment: DMSO) of 3.47 ± 0.3 and a protein stability index (treatment: MLN4924 1 uM, 8 h) of 3.82 ± 0.24.
For FGASAAGGLSPVTNLTVTMDQLQG [CDC25A], the protein stability index was 3.65 ± 0.27 (treatment: DMSO) and 3.7 ± 0.46 (treatment: MLN4924 1 uM, 8 h).
Turning to ATETQALAQRTQQDSTRTVGERLQ [TEKT4], the protein stability index is, setting by setting: (treatment: DMSO) 5.14 ± 0.43; (treatment: MLN4924 1 uM, 8 h) 5.43 ± 0.15.
The matching figures for VWKYFGFDTNAEGCILQWKKIYCR [ZBED1]: 2.37 ± 0.56 and 2.2 ± 0.41.
The matching figures for QDFPVKKRKKLSTWKQELLKLMDR [ZNF75A]: 2.5 ± 0.11 and 2.53 ± 0.17.
The matching figures for TAWTEACQVEVRLLLAYNSSARIP [INTS4]: 3.03 ± 0.4 and 2.43 ± 0.49.
IMLLDKNVPNPRIKLIDFGIAHKI [DAPK3]: the protein stability index was 2.89 ± 0.73 (treatment: DMSO) and 2.52 ± 0.46 (treatment: MLN4924 1 uM, 8 h).

Values taken from the supplement of paper PMC10567573.
